Test [1] has as its target glucokinase-YN155 (UniProt P17712). Kind of test: BiFC assay. As to conditions: COS1 cells, 25 mM glucose, without dibutyryl cAMP; parent: est. 36; read off a plot.
Test [2] shares this target. Kind of test: BiFC assay. The conditions noted are these: COS1 cells, 25 mM glucose, read off a plot.

Sequence of UniProt P17712 (P17712 whole entry): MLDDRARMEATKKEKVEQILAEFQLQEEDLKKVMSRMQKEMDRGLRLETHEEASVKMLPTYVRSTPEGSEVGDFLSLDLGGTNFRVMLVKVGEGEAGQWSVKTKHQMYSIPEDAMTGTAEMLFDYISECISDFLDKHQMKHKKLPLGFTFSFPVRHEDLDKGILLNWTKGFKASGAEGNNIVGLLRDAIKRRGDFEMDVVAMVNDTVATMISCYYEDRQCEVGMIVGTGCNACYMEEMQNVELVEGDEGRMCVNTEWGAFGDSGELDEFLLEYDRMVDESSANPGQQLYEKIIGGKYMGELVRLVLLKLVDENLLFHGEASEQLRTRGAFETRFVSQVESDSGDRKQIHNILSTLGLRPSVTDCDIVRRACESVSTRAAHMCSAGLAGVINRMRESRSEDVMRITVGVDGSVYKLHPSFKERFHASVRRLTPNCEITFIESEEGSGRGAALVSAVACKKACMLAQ

Consider “wild-type PFK2/FBPase2-YC155 (from UniProt P07953) S32A”, for which the response (% transfected cells) turned out to be 39 with glucokinase-YN155 [1]; 33 with glucokinase-YN155 [2] (50 μM dibutyryl cAMP for 1 h, parent: est. 28); 39 with glucokinase-YN155 [2] (without dibutyryl cAMP, parent: est. 36).
“wild-type PFK2/FBPase2-YC155 (from UniProt P07953) S32D”: the response (% transfected cells) with glucokinase-YN155 [1] is 39.

The record behind these values is publication PMC4024195.
